Data published in the supplement of paper PMC7125110.
± gives the standard error. Fewer inactive variants are shown than the library holds.

B1: glmS ribozyme (parent)
chain: AUAAAAGCGCCAGAACUACAGAAAUGUAGUUGACGAGGAGGAGGUUUAUCGAAUUUUCGGCGGAUGCCUCCAAA

Key:
Settings in all cases: with glucosamine-6-phosphate
glucosamine-6-phosphate [1] = variants of: B1; test: self-cleavage kobs at 40 uM GlcN6P; higher = faster cleavage; RNA array
Outline: (§1)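 Ribozyme variants carrying barcodes were transcribed in situ on sequenced MiSeq chips by E. coli RNA polymerase and tracked at 37 °C with a hybridised Cy3 probe. They were exposed to 40 μM to 10 mM glucosamine-6-phosphate in HEPES/KCl/Mg(OAc)2 buffer. kobs came from exponential decay fits of normalised per-tile medians, and kcat and KM from weighted Michaelis–Menten fits.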

glucosamine-6-phosphate [2] = variants of: B1; test: self-cleavage kobs at 2500 uM GlcN6P; higher = faster cleavage; RNA array
Outline: as §1

glucosamine-6-phosphate [3] = variants of: B1; test: self-cleavage kobs at 10000 uM GlcN6P; higher = faster cleavage; RNA array
Outline: as §1

glucosamine-6-phosphate [4] = variants of: B1; test: self-cleavage kobs at 640 uM GlcN6P; higher = faster cleavage; RNA array
Outline: as §1

glucosamine-6-phosphate [5] = variants of: B1; test: self-cleavage kobs at 160 uM GlcN6P; higher = faster cleavage; RNA array
Outline: as §1

Variant | self-cleavage kobs at 40 uM GlcN6P (glucosamine-6-phosphate [1]) | self-cleavage kobs at 2500 uM GlcN6P (glucosamine-6-phosphate [2]) | self-cleavage kobs at 10000 uM GlcN6P (glucosamine-6-phosphate [3]) | self-cleavage kobs at 640 uM GlcN6P (glucosamine-6-phosphate [4]) | self-cleavage kobs at 160 uM GlcN6P (glucosamine-6-phosphate [5])
G44C U69G | < 1e-05 s⁻¹ | < 1e-05 s⁻¹ | < 1e-05 s⁻¹ |  | 
G43U U47A | < 1e-05 s⁻¹ |  |  |  | 
G43C G66A | < 1e-05 s⁻¹ |  |  |  | 
G43U U46A U47G C70G | < 1e-05 s⁻¹ | < 1e-05 s⁻¹ | < 1e-05 s⁻¹ | < 1e-05 s⁻¹ | 
G41C C61G | < 1e-05 s⁻¹ | < 1e-05 s⁻¹ |  | < 1e-05 s⁻¹ | < 1e-05 s⁻¹
G41C G59A | < 1e-05 s⁻¹ |  |  | < 1e-05 s⁻¹ | 
A39C U49A | < 1e-05 s⁻¹ |  | < 1e-05 s⁻¹ |  | < 1e-05 s⁻¹
G40C A48C A52U | < 1e-05 s⁻¹ | < 1e-05 s⁻¹ |  | < 1e-05 s⁻¹ | 
G43U C70G | < 1e-05 s⁻¹ | < 1e-05 s⁻¹ | < 1e-05 s⁻¹ | < 1e-05 s⁻¹ | < 1e-05 s⁻¹
A42G U55G G62C | < 1e-05 s⁻¹ | < 1e-05 s⁻¹ | < 1e-05 s⁻¹ |  | < 1e-05 s⁻¹
G40A U47G | 8.03e-05 ± 1.9e-05 s⁻¹ | 0.00069 ± 0.00018 s⁻¹ | 0.00267 ± 0.0004 s⁻¹ | 0.000547 ± 0.00011 s⁻¹ | 0.000122 ± 2.3e-05 s⁻¹
G41A G43C U49A C50G C58A | < 1e-05 s⁻¹ |  |  |  | 
G44C C71A | < 1e-05 s⁻¹ |  |  | < 1e-05 s⁻¹ | < 1e-05 s⁻¹
G44C C71G | < 1e-05 s⁻¹ | < 1e-05 s⁻¹ | < 1e-05 s⁻¹ | < 1e-05 s⁻¹ | < 1e-05 s⁻¹
A42G C67G | 0.000618 ± 0.00013 s⁻¹ | 0.00814 ± 0.0014 s⁻¹ | 0.0123 ± 0.0031 s⁻¹ | 0.00232 ± 0.00045 s⁻¹ | 0.00112 ± 0.00024 s⁻¹
G43C A53G | < 1e-05 s⁻¹ |  |  | < 1e-05 s⁻¹ | < 1e-05 s⁻¹
G44C A48C | < 1e-05 s⁻¹ | < 1e-05 s⁻¹ | < 1e-05 s⁻¹ |  | < 1e-05 s⁻¹
A42C U45A C67A | < 1e-05 s⁻¹ |  |  |  | 
A42U G60C C67A | < 1e-05 s⁻¹ |  | < 1e-05 s⁻¹ |  | 
G44A U69G | < 1e-05 s⁻¹ | < 1e-05 s⁻¹ | < 1e-05 s⁻¹ | < 1e-05 s⁻¹ | 

Variant | self-cleavage kobs at 40 uM GlcN6P (glucosamine-6-phosphate [1]) | self-cleavage kobs at 2500 uM GlcN6P (glucosamine-6-phosphate [2]) | self-cleavage kobs at 10000 uM GlcN6P (glucosamine-6-phosphate [3]) | self-cleavage kobs at 640 uM GlcN6P (glucosamine-6-phosphate [4]) | self-cleavage kobs at 160 uM GlcN6P (glucosamine-6-phosphate [5])
G44A U69A | < 1e-05 s⁻¹ | < 1e-05 s⁻¹ | < 1e-05 s⁻¹ | < 1e-05 s⁻¹ | < 1e-05 s⁻¹
G41A U49A | < 1e-05 s⁻¹ |  | < 1e-05 s⁻¹ |  | < 1e-05 s⁻¹
G43A C58A | < 1e-05 s⁻¹ | < 1e-05 s⁻¹ | < 1e-05 s⁻¹ | < 1e-05 s⁻¹ | < 1e-05 s⁻¹
G43C G44U C58U | < 1e-05 s⁻¹ | < 1e-05 s⁻¹ |  |  | 
A39G U56G | 0.00055 ± 0.00012 s⁻¹ |  | 0.0224 ± 0.0047 s⁻¹ |  | 
G44A C71A | < 1e-05 s⁻¹ | < 1e-05 s⁻¹ |  | < 1e-05 s⁻¹ | < 1e-05 s⁻¹
A39U U65C | 8.42e-05 ± 1.7e-05 s⁻¹ | 0.00149 ± 0.00024 s⁻¹ |  | 0.00114 ± 0.00015 s⁻¹ | 0.000124 ± 2.7e-05 s⁻¹
G41U A64U | < 1e-05 s⁻¹ |  |  | < 1e-05 s⁻¹ | 
A39C U69G | < 1e-05 s⁻¹ |  | < 1e-05 s⁻¹ | < 1e-05 s⁻¹ | 
G44C G62C | < 1e-05 s⁻¹ | < 1e-05 s⁻¹ | < 1e-05 s⁻¹ | < 1e-05 s⁻¹ | < 1e-05 s⁻¹
G44C G62A | < 1e-05 s⁻¹ | < 1e-05 s⁻¹ | < 1e-05 s⁻¹ | < 1e-05 s⁻¹ | < 1e-05 s⁻¹
G44A A48G | < 1e-05 s⁻¹ | < 1e-05 s⁻¹ | < 1e-05 s⁻¹ | < 1e-05 s⁻¹ | < 1e-05 s⁻¹
A39G C68U | 0.000529 ± 5e-05 s⁻¹ | 0.00387 ± 0.0012 s⁻¹ | 0.0156 ± 0.003 s⁻¹ | 0.00223 ± 0.0005 s⁻¹ | 0.000783 ± 0.00025 s⁻¹
G41U A42G G44A A48G | < 1e-05 s⁻¹ |  |  | < 1e-05 s⁻¹ | 
G41U U57G | < 1e-05 s⁻¹ |  |  | < 1e-05 s⁻¹ | < 1e-05 s⁻¹
A39C G62A | < 1e-05 s⁻¹ |  | < 1e-05 s⁻¹ | < 1e-05 s⁻¹ | 
G41U G66C C68U | < 1e-05 s⁻¹ | < 1e-05 s⁻¹ |  | < 1e-05 s⁻¹ | < 1e-05 s⁻¹
G40A G44A C70U | < 1e-05 s⁻¹ |  | < 1e-05 s⁻¹ |  | 
G44A U47A C71A | < 1e-05 s⁻¹ | < 1e-05 s⁻¹ | < 1e-05 s⁻¹ | < 1e-05 s⁻¹ | 
G44C C61U | < 1e-05 s⁻¹ | < 1e-05 s⁻¹ | < 1e-05 s⁻¹ | < 1e-05 s⁻¹ | < 1e-05 s⁻¹
